Measurements as given in patent US20060142189A1 (MOUNT SINAI SCHOOL OF MEDICINE OF NEW YORK UNIVERSITY, published 2006).
Ends that are not written are not given here. * marks the point of attachment. Biotin = O=C1N[C@H]2[C@H](CS[C@H]2CCCCC(=O)*)N1

Target: ankyrin B (endogenous in ND-7 cells)
Experiment: cell-based or functional assay

For Biotin-RQIKIWFQNRRMKWKKQFNEDGSFIGQF [AP-YF peptide], the “velocity of L1-CAM directed movement on the cell surface, against cells treated with control peptide or untreated cells” value was 2 fold.
